In the experiment the target is FOXP3, Q9BZS1-1.

The values below come from IntAct's records for PubMed 25096571.

FOXP3, Q9BZS1-1, sequence (Q9BZS1 whole entry): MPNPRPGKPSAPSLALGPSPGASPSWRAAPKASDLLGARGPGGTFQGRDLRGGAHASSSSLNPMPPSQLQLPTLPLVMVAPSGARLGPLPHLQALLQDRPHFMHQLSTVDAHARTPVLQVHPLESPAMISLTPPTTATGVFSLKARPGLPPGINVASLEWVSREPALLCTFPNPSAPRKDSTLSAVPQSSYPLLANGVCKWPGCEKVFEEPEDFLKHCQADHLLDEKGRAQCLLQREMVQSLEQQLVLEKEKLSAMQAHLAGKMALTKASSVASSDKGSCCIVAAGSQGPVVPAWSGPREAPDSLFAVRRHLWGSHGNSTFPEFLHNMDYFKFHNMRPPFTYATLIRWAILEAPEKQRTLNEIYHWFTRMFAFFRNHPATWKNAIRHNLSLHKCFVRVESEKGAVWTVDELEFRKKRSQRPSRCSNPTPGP

With “Serine/threonine-protein kinase pim-1 (Homo sapiens), P11309-1 K67M”, the “effect of a mutation on the interaction” value is listed as “disrupting interaction strength”.
